In article PMC2728795:

Target: F-actin (freshly polymerized actin) (UniProt P68135)
Assay: co-sedimentation

percent bound at 5 µM F-actin: 10%
Substance: GST(541–605,Δ25)PRG (from UniProt O15085 541-605) (domain or fragment)
